Experimental findings from patent US8080523 (dated 2011) are described below.

The target in test [1] is ShK(L3).
Test [2] deals with ShK(L1).
In test [3] the target is ShK(D2).
In test [4] the target is ShK(D3).

B1: Kv1.1 (other)
chain: MTVMSGENADEASTAPGHPQDGSYPRQADHDDHECCERVVINISGLRFETQLKTLAQFPNTLLGNPKKRMRYFDPLRNEYFFDRNRPSFDAILYYYQSGGRLRRPVNVPLDMFSEEIKFYELGEEAMEKFREDEGFIKEEERPLPEKEYQRQVWLLFEYPESSGPARVIAIVSVMVILISIVIFCLETLPELKDDKDFTGTIHRIDNTTVIYTSNIFTDPFFIVETLCIIWFSFELVVRFFACPSKTDFFKNIMNFIDIVAIIPYFITLGTEIAEQEGNQKGEQATSLAILRVIRLVRVFRIFKLSRHSKGLQILGQTLKASMRELGLLIFFLFIGVILFSSAVYFAEAEEAESHFSSIPDAFWWAVVSMTTVGYGDMYPVTIGGKIVGSLCAIAGVLTIALPVPVIVSNFNYFYHRETEGEEQAQLLHVSSPNLASDSDLSRRSSSTISKSEYMEIEEDMNNSIAHYRQANIRTGNCTTADQNCVNKSKLLTDV
For orientation: Kd means the concentration at which binding is half-saturated. Read a low Kd as higher affinity. Take B1: the results for the Kd in test [1], in test [2] and in test [3] were 1.1 nM, 1 nM and 1.1 nM, respectively.

B2: Kv1.3 (other)
chain: MTVVPGDHLLEPEAAGGGGGDPPQGGCGSGGGGGGCDRYEPLPPALPAAGEQDCCGERVVINISGLRFETQLKTLCQFPETLLGDPKRRMRYFDPLRNEYFFDRNRPSFDAILYYYQSGGRIRRPVNVPIDIFSEEIRFYQLGEEAMEKFREDEGFLREEERPLPRRDFQRQVWLLFEYPESSGPARGIAIVSVLVILISIVIFCLETLPEFRDEKDYPASPSQDVFEAANNSTSGAPSGASSFSDPFFVVETLCIIWFSFELLVRFFACPSKATFSRNIMNLIDIVAIIPYFITLGTELAERQGNGQQAMSLAILRVIRLVRVFRIFKLSRHSKGLQILGQTLKASMRELGLLIFFLFIGVILFSSAVYFAEADDPSSGFNSIPDAFWWAVVTMTTVGYGDMHPVTIGGKIVGSLCAIAGVLTIALPVPVIVSNFNYFYHRETEGEEQAQYMHVGSCQHLSSSAEELRKARSNSTLSKSEYMVIEEGGMNHSAFPQTPFKTGNSTATCTTNNNPNSCVNIKKIFTDV
In the case of B2, the Kd in test [4] turned out to be 0.07 nM.
